In IntAct's records for PubMed 9468140:

B1: Retinoblastoma-associated protein (Homo sapiens), P06400 (parent)
chain: MPPKTPRKTAATAAAAAAEPPAPPPPPPPEEDPEQDSGPEDLPLVRLEFEETEEPDFTALCQKLKIPDHVRERAWLTWEKVSSVDGVLGGYIQKKKELWGICIFIAAVDLDEMSFTFTELQKNIEISVHKFFNLLKEIDTSTKVDNAMSRLLKKYDVLFALFSKLERTCELIYLTQPSSSISTEINSALVLKVSWITFLLAKGEVLQMEDDLVISFQLMLCVLDYFIKLSPPMLLKEPYKTAVIPINGSPRTPRRGQNRSARIAKQLENDTRIIEVLCKEHECNIDEVKNVYFKNFIPFMNSLGLVTSNGLPEVENLSKRYEEIYLKNKDLDARLFLDHDKTLQTDSIDSFETQRTPRKSNLDEEVNVIPPHTPVRTVMNTIQQLMMILNSASDQPSENLISYFNNCTVNPKESILKRVKDIGYIFKEKFAKAVGQGCVEIGSQRYKLGVRLYYRVMESMLKSEEERLSIQNFSKLLNDNIFHMSLLACALEVVMATYSRSTSQNLDSGTDLSFPWILNVLNLKAFDFYKVIESFIKAEGNLTREMIKHLERCEHRIMESLAWLSDSPLFDLIKQSKDREGPTDHLESACPLNLPLQNNHTAADMYLSPVRSPKKKGSTTRVNSTANAETQATSAFQTQKPLKSTSLSLFYKKVYRLAYLRLNTLCERLLSEHPELEHIIWTLFQHTLQNEYELMRDRHLDQIMMCSMYGICKVKNIDLKFKIIVTAYKDLPHAVQETFKRVLIKEEEYDSIIVFYNSVFMQRLKTNILQYASTRPPTLSPIPHIPRSPYKFPSSPLRIPGGNIYISPLKSPYKISEGLPTPTKMTPRSRILVSIGESFGTSEKFQKINQMVCNSDRVLKRSAEGSNPPKPLKKLRFDIEGSDEADGSKHLPGESKFQQKLAEMTSTRTRMQKQKMNDSMDTSNKEEK

Variants of: B1
Conditions: with hdac1_human HDAC1, Q13547
hdac1_human HDAC1, Q13547, sequence (Q13547 whole entry): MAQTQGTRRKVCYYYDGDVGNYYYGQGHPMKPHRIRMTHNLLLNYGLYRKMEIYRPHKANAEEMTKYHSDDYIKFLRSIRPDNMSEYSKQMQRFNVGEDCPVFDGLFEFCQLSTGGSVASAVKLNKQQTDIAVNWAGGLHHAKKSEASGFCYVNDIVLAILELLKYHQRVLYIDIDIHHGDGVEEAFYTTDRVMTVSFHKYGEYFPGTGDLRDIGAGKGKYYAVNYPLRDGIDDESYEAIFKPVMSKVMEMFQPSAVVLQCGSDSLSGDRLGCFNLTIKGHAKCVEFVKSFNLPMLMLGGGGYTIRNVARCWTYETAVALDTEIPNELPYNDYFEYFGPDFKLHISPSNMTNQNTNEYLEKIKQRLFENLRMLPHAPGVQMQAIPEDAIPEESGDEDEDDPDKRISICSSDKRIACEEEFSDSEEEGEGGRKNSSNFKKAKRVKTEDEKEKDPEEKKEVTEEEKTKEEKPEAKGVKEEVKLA

Row | Variant | effect of a mutation on the interaction
1 | C706F | disrupting interaction
